One molecule from patent US6555347 (University of California, dated 2003) can be followed below.

This assay addresses T1, lexA-bicoid (UniProt P09081 2-160).
T1 construct: also called nonspecific bait; not shown: LexA part of the two-hybrid bait
T1 sequence (looked up): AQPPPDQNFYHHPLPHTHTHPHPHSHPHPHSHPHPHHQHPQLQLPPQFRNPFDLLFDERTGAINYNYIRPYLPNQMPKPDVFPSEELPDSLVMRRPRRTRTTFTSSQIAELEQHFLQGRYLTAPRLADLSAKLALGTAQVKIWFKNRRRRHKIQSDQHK
Description: yeast two-hybrid (interaction trap), retransformation with control bait. An excerpt:
The human minor vault protein p193 amino acid sequence and the nucleotide sequence encoding human minor vault protein p193 were elucidated as follows. First, human vault protein p193 was cloned using an interaction trap, two-hybrid system according to techniques known to those with skill in the art. See, for example, Golemis, et al., *Current Protocols in Mol. Biol.* 20.1.1–20.35 John Willey & Sons, 1997, incorporated by reference in its entirety. In summary, rat major vault protein, GenBank accession number U09870, having the 67 amino acids at the amino-terminal truncated was used as bait against a HeLa acid fusion cDNA library obtained from Roger Brent, Boston, Mass., USA to search for proteins that interacted with rat major vault protein. The interacting proteins were identified by their ability to give rise to blue colonies on media containing galactose and X-gal, a color indicator substrate. The specificity of the interaction between the identified proteins and the rat major vault protein was verified by retransformation of the identified proteins with specific, rat major vault protein and nonspecific (lexA-bicoid) bait cDNAs. This technique identified the cDNA encoding the 193 kDa minor vault protein, SEQ ID NO: 1, by its interaction with the rat major vault protein.

B1: human minor vault protein p193 (other)
chain: VCTQHWQDAVPWTELLSLQTEDGFWKLTPELGLILNLNTNGLHSFLKQKGIQSLGVKGRECLLDLIATMLVLQFIRTRLEKEGIVFKSLMKMDDPSISRNIPWAFEAIKQASEWVRRTEGQYPSICPRLELGNDWDSATKQLLGLQPISTVSPLHRVLHYSQG
notes: In the two-hybrid screen, p193 was a clone from a HeLa acid fusion cDNA library; In the western blots, immunofluorescence and immunoprecipitation, the form of p193 is not described; also called 193 kDa minor vault protein; human vault protein p193
As for B1, the binding result was “no binding”.
